# From patent US20210238276A1 (INTEGRAL MOLECULAR, published 2021)
# T1: hsGLUT4 G356A (human, UniProt P14672 1-509)
# T1 sequence: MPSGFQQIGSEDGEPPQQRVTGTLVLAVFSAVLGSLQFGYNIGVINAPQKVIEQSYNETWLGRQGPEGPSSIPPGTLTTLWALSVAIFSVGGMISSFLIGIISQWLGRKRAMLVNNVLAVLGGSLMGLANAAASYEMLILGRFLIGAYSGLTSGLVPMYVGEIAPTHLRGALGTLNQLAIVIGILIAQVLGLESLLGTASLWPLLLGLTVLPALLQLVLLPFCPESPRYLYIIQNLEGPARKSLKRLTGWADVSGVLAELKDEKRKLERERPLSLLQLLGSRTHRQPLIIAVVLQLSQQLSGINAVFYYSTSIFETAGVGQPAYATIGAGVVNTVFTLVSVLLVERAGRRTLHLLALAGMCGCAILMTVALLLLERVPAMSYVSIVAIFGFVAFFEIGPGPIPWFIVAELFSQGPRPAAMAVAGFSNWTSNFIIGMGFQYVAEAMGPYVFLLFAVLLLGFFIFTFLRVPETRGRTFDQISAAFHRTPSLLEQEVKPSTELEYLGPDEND
# T2: hsGLUT4 Y159A (human, UniProt P14672 1-509)
# T2 sequence: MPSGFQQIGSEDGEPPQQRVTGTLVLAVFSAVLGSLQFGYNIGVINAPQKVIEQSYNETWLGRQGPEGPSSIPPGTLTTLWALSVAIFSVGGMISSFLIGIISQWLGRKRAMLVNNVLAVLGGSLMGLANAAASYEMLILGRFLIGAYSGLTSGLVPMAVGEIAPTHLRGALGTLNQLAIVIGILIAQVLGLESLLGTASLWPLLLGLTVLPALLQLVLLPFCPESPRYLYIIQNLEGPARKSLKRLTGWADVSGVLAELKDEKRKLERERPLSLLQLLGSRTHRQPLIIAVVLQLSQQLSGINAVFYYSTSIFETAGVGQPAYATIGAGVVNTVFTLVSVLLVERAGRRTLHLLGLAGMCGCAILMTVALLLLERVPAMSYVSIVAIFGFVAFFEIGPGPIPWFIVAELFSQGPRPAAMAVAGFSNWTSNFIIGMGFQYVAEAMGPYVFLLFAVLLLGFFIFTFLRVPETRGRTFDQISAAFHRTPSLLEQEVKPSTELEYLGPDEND
# T3: hsGLUT4 N508A (human, UniProt P14672 1-509)
# T3 sequence: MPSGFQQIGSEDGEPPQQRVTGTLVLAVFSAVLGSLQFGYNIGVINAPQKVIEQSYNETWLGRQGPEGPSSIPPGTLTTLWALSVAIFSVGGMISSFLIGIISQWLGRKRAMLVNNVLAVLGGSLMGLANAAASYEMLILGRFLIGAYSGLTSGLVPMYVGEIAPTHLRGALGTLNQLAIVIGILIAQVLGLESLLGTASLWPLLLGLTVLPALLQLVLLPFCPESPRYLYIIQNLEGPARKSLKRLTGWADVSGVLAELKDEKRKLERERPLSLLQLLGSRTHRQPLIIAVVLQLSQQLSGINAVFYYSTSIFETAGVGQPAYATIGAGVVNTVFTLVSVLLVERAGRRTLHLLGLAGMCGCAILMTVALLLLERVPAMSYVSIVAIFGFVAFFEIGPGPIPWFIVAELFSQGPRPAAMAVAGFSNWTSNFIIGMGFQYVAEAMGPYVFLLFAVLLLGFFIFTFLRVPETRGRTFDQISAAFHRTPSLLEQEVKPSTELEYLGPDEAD
# T4: hsGLUT4 G446A (human, UniProt P14672 1-509)
# T4 sequence: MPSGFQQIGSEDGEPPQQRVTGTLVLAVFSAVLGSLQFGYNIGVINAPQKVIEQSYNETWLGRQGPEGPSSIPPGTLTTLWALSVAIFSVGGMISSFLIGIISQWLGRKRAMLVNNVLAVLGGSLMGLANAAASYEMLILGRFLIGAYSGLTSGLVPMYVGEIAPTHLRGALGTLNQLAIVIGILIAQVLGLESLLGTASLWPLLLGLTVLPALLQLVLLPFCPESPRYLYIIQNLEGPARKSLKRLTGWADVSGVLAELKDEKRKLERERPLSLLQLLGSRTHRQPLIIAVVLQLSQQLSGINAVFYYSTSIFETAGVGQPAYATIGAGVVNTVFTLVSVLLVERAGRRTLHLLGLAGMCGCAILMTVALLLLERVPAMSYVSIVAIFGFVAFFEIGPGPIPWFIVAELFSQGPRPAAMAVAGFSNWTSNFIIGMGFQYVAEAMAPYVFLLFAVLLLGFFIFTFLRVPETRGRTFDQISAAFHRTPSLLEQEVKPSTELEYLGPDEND
# Key:
# Test in all cases: flow cytometry, alanine-scan library in HEK-293T
# hsGLUT4 G356A = target: T1, hsGLUT4 G356A
# Experimental: (§1) Because of the state-dependence of the isolated MAbs, we next wished to understand the mechanism by which each MAb could recognize GLUT4 in its different conformations. The residues required for binding of each MAb were determined using shotgun mutagenesis comprehensive alanine scanning (Davidson E & Doranz B J (2014) A High-Throughput Shotgun Mutagenesis Approach to Mapping B-cell Antibody Epitopes. Immunology, which is hereby incorporated by reference in its entirety). All residues of hsGLUT4 were individually mutated to alanine, with existing alanines changed to serines. Mutations were obtained for 508 of the 509 residues of GLUT4 (excluding the initiating methionine). The entire mutation library was transfected into human HEK-293T cells in a 384-well array format (one clone per well) and assessed for immunoreactivity using high-throughput flow cytometry.
# (§2) HEK-293T cells were transfected by CaPO₄ with plasmids in 6-well culture plates (Falcon) at 750,000 cells/well. At 48 hours post transfection, cells were stained with anti-V5 and anti-GLUT4 MAbs (purified scFv, 2 μg/ml) followed by biotinylated goat anti-mouse or human antibody (1:500) and streptavidin-PerCP (1:500). Fluorescence was detected using an Intellicyt high-throughput flow cytometer (HTFC; Intellicyt, Albuquerque, N. Mex.). For cell permeabilization, cells were treated with saponin at 0.1% in PBS for 20 minutes. To discriminate intact (live) and permeabilized (dead) cells without the use of detergent, propidium iodide (PI) was added to HEK-293T cells at 1 ug/ml just prior to flow cytometry. Where indicated, cytochalasin B (Sigma) was used at a final concentration of 10 uM and phloretin (Sigma) was used at a final concentration of 100 uM, each added in 10% NGS for 30 minutes prior to antibody staining as well as included with the primary antibody.
# hsGLUT4 Y159A = target: T2, hsGLUT4 Y159A
# Experimental: as §1, §2
# hsGLUT4 N508A = target: T3, hsGLUT4 N508A
# Experimental: as §1, §2
# hsGLUT4 G446A = target: T4, hsGLUT4 G446A
# Experimental: as §1, §2
Molecule,% of binding to wild type GLUT4 (hsGLUT4 G356A),% of binding to wild type GLUT4 (hsGLUT4 Y159A),% of binding to wild type GLUT4 (hsGLUT4 N508A),% of binding to wild type GLUT4 (hsGLUT4 G446A)
1F8 (antibody),90%,96%,21%,108%
"AB111 (Fc fusion, Bivalent scFv-Fc; also called MAb AB111; not shown: Fc fragment of human IgG1, cloned in frame with the scFv) scFv: ALTQPSSVSANPGETVKITCSGSGSWYGWFQQKSPGSAPVTVIYSNDKRPSDIPSRFSGSKSGSTSTLTITGVQVEDEAVYYCGNWDIFGAGTTLTVLGQSSRSSGGGGSSGGGGSAVTLDESGGGLQTPGGALSLVCKASGFTFSSHGMGWVRQAPGKGLEWVASISTGRYTFYAPAVKGRATISRDNGQSTVRLQLNNLRAEDTATYYCTKCAGLNGCGGGEIDAWGHGTEVIVSS",137%,88%,193%,71%
"AB108 (Fc fusion, Bivalent scFv-Fc; also called MAb AB108; not shown: Fc fragment of human IgG1, cloned in frame with the scFv) scFv: ALTQPSSVSANLGGTVKITCSGSSGSYGWYQQKAPGSAPVTLIYRNDKRPSDIPSRFSGSESGSTGTLTITGVQAEDEAVYFCGGYDSSAGYAAFGAGTTLTVLGQSSRSSGGGGSSGGGGSAVTLDESGGGLQTPGGALSLVCKASGFTFSSHGMGWVRQAPGKGLEWVGSISTGRYTFYAPAVKGRATISRDNGQSTLRLQLNNLRAEDTGTYYCTKCAGLNGCGGGEIDAWGHGTEVIVSS",19%,46%,89%,86%
"AB101 (scFv, Chicken-derived clone used as a control; the four lead clones were tested as scFv-human IgG1 Fc; also called MAb AB101) scFv: ALTQPSSVSANPGETVKITCSGSSNSYGWYQQKSPGSAPVTVIYYNDKRPSDIPSRFSGSKSDSTHTLTITGVRAEDEAVYFCGSYDSTYVGIFGAGTTLTVLGQSSRSSGGGGSSGGGGSAVTLDESGGGLQTPGGTLSLVCKASGFTFSSNAMGWVRQAPGKGLEWVAGISSDGRYTKYGSAVKGRATISRDNGQSTVRLQLNNLRAEDTGTYFCAKAFGNNYRRIYAGQIDAWGHGTEVIVSS",46%,122%,7%,95%
